# The RNAGym collection of RNA variant scans (doi:10.7554/elife.90254)
# B1: LINE1-mini (parent)
# chain: GGCAGAGCUCAACACAGCGUGGCAAAGUGGCUGUGGCUAGACUGCC
# Variants of: B1
# Experiment: self-cleavage, relative activity (ratio to wild type); higher = more cleavage; in vitro, sequencing; the parent is a self-cleaving ribozyme
row,Variant,self-cleavage
1,GGCAGAGCUCAACACAGUGUGGCAAAGUGGCUGUGGCUAAACUGCC [C18U G40A],0.1
2,GGCAGAGCUCAUCACAACGUGGCAAAGUGGCUGUGGCUAGACUGCC [A12U G17A],0.05
3,GGCAGAGCUCAACACAGCGUGGCACAGUGGCUGUUGCUAGACUGCC [A25C G35U],0.12
4,GGCAGAGCUCAACACAGCGUGGCAAAGUGACGGUGGCUAGACUGCC [G30A U32G],0.41
5,GGCAGAGCUCAACAAAGCGUGGCAAAGUGGCUGUGGCUAGACUGCA [C15A C46A],0.09
6,GGCAGAGCUCAACACAGCGUGGCACAGUGGCUGUGGCUAGACUGGC [A25C C45G],0.11
7,GGCAGAGCUCAACACAGCGUGGCAAACUGGCUGUCGCUAGACUGCC [G27C G35C],0.25
8,GGCAGAGCUCAACACAGCGUGGCAAAGUCGCUGUGGAUAGACUGCC [G29C C37A],0.02
9,GGCAUAGGUCAACACAGCGUGGCAAAGUGGCUGUGGCUAGACUGCC [G5U C8G],0.14
10,GGCAGAGCUCAACACAGUGUGGCAAACUGGCUGUGGCUAGACUGCC [C18U G27C],0.55
11,GGCAGAGCUCAACACAGCGGGGCAAAGUGGCUGUGGCUAGACUGCG [U20G C46G],0.45
12,GGCAGAUCUGAACACAGCGUGGCAAAGUGGCUGUGGCUAGACUGCC [G7U C10G],0.03
13,GGCAGAGCUCAUCACAGCGUGGCAAAGUGGCUGUGGCUAGAGUGCC [A12U C42G],0.04
14,GGCUGAGCUCAACACAGCGUGUCAAAGUGGCUGUGGCUAGACUGCC [A4U G22U],0.52
15,GGCAGACCUCAACACAGCGUGGCAAAUUGGCUGUGGCUAGACUGCC [G7C G27U],0.11
16,GGCAGUGCUCAACACAGCGUGGCAUAGUGGCUGUGGCUAGACUGCC [A6U A25U],0.72
17,GGCAGAGCUCAACACACCGUGGCAAAGUGGCUGUGGCUAGACUCCC [G17C G44C],0.05
18,GGCAGAGCUCAACACGGCGUGGCAAAGUGGCUUUGGCUAGACUGCC [A16G G33U],0.04
19,GGCAGAGCUCAACACAGCGUGGCAAAGUGGCUGUGGCUAGAUUGGC [C42U C45G],0.09

row,Variant,self-cleavage
1,GUCAGAGCUCAACACAGCGUGGCAAAGUGGCUGUGGGUAGACUGCC [G2U C37G],0.04
2,UGCAGAGCUCAAAACAGCGUGGCAAAGUGGCUGUGGCUAGACUGCC [G1U C13A],0.05
3,GGCAGAGCUCAACACAGCGUGGCAGAGUGGCUGUGGCUAGAAUGCC [A25G C42A],0.09
4,GGCAGAGCUCAACACAGCGUGGCAAAGUGGCUGUGGCGAGAAUGCC [U38G C42A],0.03
5,GGCAGAGCUCAACACAGCGUGGCAAAUUGCCUGUGGCUAGACUGCC [G27U G30C],1.79
6,GGCAGAGCUCAACACAGCGUGGCAAGGUGGCCGUGGCUAGACUGCC [A26G U32C],0.18
7,GGCAGAGCUAAACACAACGUGGCAAAGUGGCUGUGGCUAGACUGCC [C10A G17A],0.04
8,GGCAGAGCUCCACACAGCGUGGCAAAGUGGCUGUGGCUAGACUGCC [A11C],0.08
9,GGCAGAGCACAACACAGCGUGGCAAAGUGGGUGUGGCUAGACUGCC [U9A C31G],0.07
10,GGCAGAGCUCAACACUGCGUGGCCAAGUGGCUGUGGCUAGACUGCC [A16U A24C],0.1
11,GGCAGAGCUCAACACAGCGUGGCAAAUUGGCUGUGGCUAGACUGUC [G27U C45U],1.6
12,GGCAGACCUCAACACAGCGUGGCAAAGGGGCUGUGGCUAGACUGCC [G7C U28G],0.08
13,GGCAGAGCUCAACACAGCGUGGCAUAGUGGCUGUGGCUCGACUGCC [A25U A39C],0.23
14,GACAGAGCACAACACAGCGUGGCAAAGUGGCUGUGGCUAGACUGCC [G2A U9A],0.31
15,GGCAGAGCUCAACACAGCGUGGCAAAGUGGCUGUGGCUCGAAUGCC [A39C C42A],0.1
16,GGCUGAGCGCAACACAGCGUGGCAAAGUGGCUGUGGCUAGACUGCC [A4U U9G],0.07
17,GGCAGAGCUCAACACAGCGGGGCAAAGUGGCUGUUGCUAGACUGCC [U20G G35U],0.12
18,GGCAGAGCUCAACACCGCGUGGCAUAGUGGCUGUGGCUAGACUGCC [A16C A25U],0.08
19,GGCAGGGCUCAACACAGCGUGGCAAAGUGGCUGUGGGUAGACUGCC [A6G C37G],0.07

row,Variant,self-cleavage
1,GGCAGAGCUCAUCACAGCGUGGCAAAGUGGCUGUGGCUAUACUGCC [A12U G40U],0.17
2,GGCAGAGCUCAACAGAGCGUGGCAAAGUGGCUGUGGCUAGACAGCC [C15G U43A],0.02
3,GGCAGAGCUCAACACAGCGUGGCAAAGUGGCAGUGGCUAAACUGCC [U32A G40A],0.06
4,GGCAGAGCUCAACACUGUGUGGCAAAGUGGCUGUGGCUAGACUGCC [A16U C18U],0.07
5,UGCAGAGCUCAACACAGCGUGUCAAAGUGGCUGUGGCUAGACUGCC [G1U G22U],0.43
6,GGCAGAGCUCAAUACAGCGUGGCAAAGUGGCUGUUGCUAGACUGCC [C13U G35U],0.18
7,GGCAAAGCUCAACACAGCGUGGCAAAGUGGCUGUGGCUAGACAGCC [G5A U43A],0.05
8,GGCAGAGCUUAACACAGCAUGGCAAAGUGGCUGUGGCUAGACUGCC [C10U G19A],0.32
9,GGCAGAGCUCAACACAGCGUGGCAAAGUGGCUGUAGCUACACUGCC [G35A G40C],0.08
10,GGAAGAGCUCAAUACAGCGUGGCAAAGUGGCUGUGGCUAGACUGCC [C3A C13U],1.71
11,GGCAGAGCUCAACACAGCGUGGCACAGUGGCUGUGGCUUGACUGCC [A25C A39U],0.52
12,GGCAGAGCUCAACACAGCGUGGCAUAGUGGCUGAGGCUAGACUGCC [A25U U34A],0.16
13,CGCAGAGCUCAACACAGCGUGGCAAAGCGGCUGUGGCUAGACUGCC [G1C U28C],0.02
14,CGCAGAGCUCAACACAGCGUGGCAAAGAGGCUGUGGCUAGACUGCC [G1C U28A],0.04
15,GGCAGAGCUCUACACAGCGUGGCAACGUGGCUGUGGCUAGACUGCC [A11U A26C],0.16
16,GGGAGAGCUCAACACAGCGUGGCAAAGUGGCUGUGGCUAGCCUGCC [C3G A41C],0.1
17,GGCGGAGCUCAACACAGCGUGGCAAAGUGGCUGUGGCUAGAGUGCC [A4G C42G],0.02
18,GGCAGAGCUCAACCCAGCGUGGCAAAGUGGUUGUGGCUAGACUGCC [A14C C31U],0.02
